Columns and labels:
[1] = biological target: T1, hUPF1 (full-length) (Homo sapiens, UniProt Q92900-2 1-1118); assay: EMSA; 25 mM HEPES-NaOH pH 7.2, 135 mM NaCl, 2 mM DTT, 1 mg/ml acetylated BSA, 0.1% NP40, 20 min; EMSA 20 C, MST 22 C (20 nM DNA); no nucleotide cofactor or Mg2+ unles; settings: protein: recombinant; tags: GST and His tags removed (thrombin, TEV); residual ENLYFQ linker likely at C-terminus; label: 5' 32P (EMSA)
T1 sequence: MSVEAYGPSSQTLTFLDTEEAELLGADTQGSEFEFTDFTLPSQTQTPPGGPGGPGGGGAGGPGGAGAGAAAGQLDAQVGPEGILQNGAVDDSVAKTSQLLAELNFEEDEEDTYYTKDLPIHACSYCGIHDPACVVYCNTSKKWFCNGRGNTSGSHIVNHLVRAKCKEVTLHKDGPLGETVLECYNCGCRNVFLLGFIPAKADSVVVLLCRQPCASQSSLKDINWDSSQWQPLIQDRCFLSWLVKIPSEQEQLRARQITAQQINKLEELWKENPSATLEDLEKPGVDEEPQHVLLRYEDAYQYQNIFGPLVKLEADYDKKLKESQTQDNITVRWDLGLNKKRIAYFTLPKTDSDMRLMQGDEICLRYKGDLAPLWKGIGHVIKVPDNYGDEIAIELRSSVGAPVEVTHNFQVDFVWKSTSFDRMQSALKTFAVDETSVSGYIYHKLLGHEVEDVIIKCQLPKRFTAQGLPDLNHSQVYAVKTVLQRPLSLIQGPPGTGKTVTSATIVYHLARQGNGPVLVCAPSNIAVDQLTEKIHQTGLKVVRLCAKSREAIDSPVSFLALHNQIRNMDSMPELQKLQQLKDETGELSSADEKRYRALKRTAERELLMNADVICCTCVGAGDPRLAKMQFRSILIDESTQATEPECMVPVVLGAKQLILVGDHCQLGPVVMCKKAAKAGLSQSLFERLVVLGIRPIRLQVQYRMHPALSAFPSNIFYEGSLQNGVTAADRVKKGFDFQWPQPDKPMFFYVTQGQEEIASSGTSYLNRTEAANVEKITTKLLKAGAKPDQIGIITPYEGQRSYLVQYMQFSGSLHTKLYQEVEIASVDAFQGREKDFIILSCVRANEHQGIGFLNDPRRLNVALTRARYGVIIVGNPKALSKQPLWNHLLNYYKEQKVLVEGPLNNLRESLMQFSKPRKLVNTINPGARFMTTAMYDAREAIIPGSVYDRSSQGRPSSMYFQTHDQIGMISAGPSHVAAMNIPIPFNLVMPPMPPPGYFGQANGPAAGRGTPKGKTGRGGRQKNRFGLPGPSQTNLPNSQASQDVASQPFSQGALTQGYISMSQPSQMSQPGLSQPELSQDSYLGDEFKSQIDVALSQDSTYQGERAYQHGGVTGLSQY

[2] = biological target: T1, hUPF1 (full-length); assay: EMSA; no nucleotide cofactor; 25 mM HEPES-NaOH pH 7.2, 135 mM NaCl, 2 mM DTT, 1 mg/ml acetylated BSA, 0.1% NP40, 20 min; EMSA 20 C, MST 22 C (20 nM DNA); no nucleotide cofactor or Mg2+ unles; settings: protein: recombinant; tags: GST and His tags removed (thrombin, TEV); residual ENLYFQ linker likely at C-terminus; label: 5' 32P (EMSA)
[3] = biological target: T1, hUPF1 (full-length); assay: competition; vs 0.25 nM 32P-DNA35, 10 nM hUPF1; 25 mM HEPES-NaOH pH 7.2, 135 mM NaCl, 2 mM DTT, 1 mg/ml acetylated BSA, 0.1% NP40, 20 min; EMSA 20 C, MST 22 C (20 nM DNA); no nucleotide cofactor or Mg2+ unles; settings: protein: recombinant, tags: GST and His tags removed (thrombin, TEV), residual ENLYFQ linker likely at C-terminus
[4] = biological target: T1, hUPF1 (full-length); assay: MST; fit up to 156 nM hUPF1; 25 mM HEPES-NaOH pH 7.2, 135 mM NaCl, 2 mM DTT, 1 mg/ml acetylated BSA, 0.1% NP40, 20 min; EMSA 20 C, MST 22 C (20 nM DNA); no nucleotide cofactor or Mg2+ unles; settings: protein: recombinant; tags: GST and His tags removed (thrombin, TEV); residual ENLYFQ linker likely at C-terminus; label: 5' Alexa 647
[5] = biological target: T1, hUPF1 (full-length); assay: MST; second experimental group; fit up to 156 nM; 25 mM HEPES-NaOH pH 7.2, 135 mM NaCl, 2 mM DTT, 1 mg/ml acetylated BSA, 0.1% NP40, 20 min; EMSA 20 C, MST 22 C (20 nM DNA); no nucleotide cofactor or Mg2+ unles; settings: protein: recombinant; tags: GST and His tags removed (thrombin, TEV); residual ENLYFQ linker likely at C-terminus; label: 5' Alexa 647
[6] = biological target: T1, hUPF1 (full-length); assay: EMSA; 25 mM HEPES-NaOH pH 7.2, 135 mM NaCl, 2 mM DTT, 1 mg/ml acetylated BSA, 0.1% NP40, 20 min; EMSA 20 C, MST 22 C (20 nM DNA); no nucleotide cofactor or Mg2+ unles; settings: protein: recombinant; tags: GST and His tags removed (thrombin, TEV); residual ENLYFQ linker likely at C-terminus; label: 32P (EMSA)
[7] = biological target: T1, hUPF1 (full-length); assay: MST; fit up to 313 nM hUPF1; 25 mM HEPES-NaOH pH 7.2, 135 mM NaCl, 2 mM DTT, 1 mg/ml acetylated BSA, 0.1% NP40, 20 min; EMSA 20 C, MST 22 C (20 nM DNA); no nucleotide cofactor or Mg2+ unles; settings: protein: recombinant; tags: GST and His tags removed (thrombin, TEV); residual ENLYFQ linker likely at C-terminus; label: 5' Alexa 647
[8] = biological target: T1, hUPF1 (full-length); assay: EMSA; most or all bound at top concentrations; multimerization; 25 mM HEPES-NaOH pH 7.2, 135 mM NaCl, 2 mM DTT, 1 mg/ml acetylated BSA, 0.1% NP40, 20 min; EMSA 20 C, MST 22 C (20 nM DNA); no nucleotide cofactor or Mg2+ unles; settings: protein: recombinant; tags: GST and His tags removed (thrombin, TEV); residual ENLYFQ linker likely at C-terminus; label: 32P
[9] = biological target: T1, hUPF1 (full-length); assay: MST; 25 mM HEPES-NaOH pH 7.2, 135 mM NaCl, 2 mM DTT, 1 mg/ml acetylated BSA, 0.1% NP40, 20 min; EMSA 20 C, MST 22 C (20 nM DNA); no nucleotide cofactor or Mg2+ unles; settings: protein: recombinant; tags: GST and His tags removed (thrombin, TEV); residual ENLYFQ linker likely at C-terminus; label: 5' Alexa 647
[10] = biological target: T1, hUPF1 (full-length); assay: EMSA; equivalent to G4 ss precursor; 25 mM HEPES-NaOH pH 7.2, 135 mM NaCl, 2 mM DTT, 1 mg/ml acetylated BSA, 0.1% NP40, 20 min; EMSA 20 C, MST 22 C (20 nM DNA); no nucleotide cofactor or Mg2+ unles; settings: protein: recombinant; tags: GST and His tags removed (thrombin, TEV); residual ENLYFQ linker likely at C-terminus; label: 32P
[11] = biological target: T1, hUPF1 (full-length); assay: MST; biphasic, low-amplitude first phase; 25 mM HEPES-NaOH pH 7.2, 135 mM NaCl, 2 mM DTT, 1 mg/ml acetylated BSA, 0.1% NP40, 20 min; EMSA 20 C, MST 22 C (20 nM DNA); no nucleotide cofactor or Mg2+ unles; settings: protein: recombinant; tags: GST and His tags removed (thrombin, TEV); residual ENLYFQ linker likely at C-terminus; label: 5' Alexa 647

Which results are given for TTTTTTTTTTTTTTTTTTTTTTTTTTTTTTTTTTT (ssDNA) [d(T)35]?
binding signal [1]: ~2 fold higher affinity than (U)35; Kd [2]: ~1 nM; IC50 ([3]; label: 5' 32P (EMSA)): 11.5 nM

For TTTTTTTTTTTTTTTTTTTTTTTTTTTTTTTTTTT (ssDNA) [d(T)35-Alexa647], which Kd [4] is on record?
Its Kd is 4.05 ± 0.58 nM.

And the Kd [5]?
The Kd was 6.01 ± 0.85 nM.

For CACAAGCAACCAATCGGTTCGACACTCATACTGGC (ssDNA) [DNA35], which binding signal [1] is on record?
The binding signal was ~3 fold higher affinity than RNA35.

What about the IC50 ([3]; label: 5' 32P (EMSA)) of the same binder?
The IC50 was 31.5 nM.

How did the IC50 ([3]; label: 32P (EMSA)) turn out when CACAAGCAACCAAUCGGUUCGACACUCAUACUGGC (ssRNA) [RNA35] was run?
The IC50 was 50.4 nM.

With AAAAAAAAAAAAAAAAAAAAAAAAAAAAAAAAAAA (ssRNA) [(A)35] as the binder, how does the binding signal [6] read?
Its binding signal is ~5 fold higher affinity than (C)35.

What about the IC50 ([3]; label: 32P (EMSA)) of the same binder?
Its IC50 is 172 nM.

TTTTTTTTTTTTTTTTTTTTTTTTT (ssDNA) [d(T)25-Alexa647] was tested. Which Kd [7] did it give?
The Kd was 5.98 ± 0.51 nM.

Does TTTTTTTTTTTTTTTTTTTTTTTTTTTTTTTTTTTTTTTTTTTTT (ssDNA) [d(T)45] bind [8]?
Result: binds

B1: d(T)55 (ssDNA)
DNA: TTTTTTTTTTTTTTTTTTTTTTTTTTTTTTTTTTTTTTTTTTTTTTTTTTTTTTT
Does B1 bind [8]?
Result: binds

With TTTTTTTTTTTTTTT (ssDNA) [d(T)15-Alexa647] as the binder, how does the Kd [9] read?
The Kd was 39.4 ± 3.6 nM.

Does TTTTTTTTTTTTTTTTTT (ssDNA) [d(T)18] bind [10]?
Result: binds

Which Kd [4] does the source give for CACAAGCAACCAATCGGTTCGACACTCATACTGGC (ssDNA) [DNA35-Alexa647] here?
Its Kd is 9.8 ± 1 nM.

How did the Kd [11] turn out when AAAAAAAAAAAAAAAAAAAAAAAAAAAAAAAAAAA (ssDNA) [d(A)35-Alexa647] was run?
Its Kd is 4200 ± 3730 nM.

Which IC50 ([3]; label: 32P (EMSA)) does the source give for UUUUUUUUUUUUUUUUUUUUUUUUUUUUUUUUUUU (ssRNA) [(U)35] here?
Its IC50 is 12.3 nM.
